Publication PMC2670278 (Nature, 2009)

Molecular target: factor H CCPs 6 & 7 (human, UniProt P08603, 402^His)
Assay: SPR

B1: factor H binding protein, construct comprising regions A, B and C but lacking the lipid anchor (natural protein)
chain: GGVAADIGAGLADALTAPLDHKDKGLQSLTLDQSVRKNEKLKLAAQGAEKTYGNGDSLNTGKLKNDKVSRFDFIRQIEVDGQLITLESGEFQVYKQSHSALTAFQTEQIQDSEHSGKMVAKRQFRIGDIAGEHTSFDKLPEGGRATYRGTAFGSDDAGGKLTYTIDFAAKQGNGKIEHLKSPELNVDLAAADIKPDGKRHAVISGSVLYNQAEKGSYSLGIFGGKAQEVAGSAEVKTVNGIRHIGLAAKQ
- Kd: ~5 nM
